Bridges are numbered along the chain shown (N, C = ends). Where no end group is shown, it is not given here. Where only a bound is given, the exact number is not on record here.

Assay [1] concerns the target T1, alpha subunit of the human FcεRI receptor expressed on cells (human, UniProt P12319 26-257).
T1 construct: whole, on cells; on rat basophil RBL-48 cells in the histamine release assay; also called CHO FcεRI+ cells; cell surface expressed FcεRI
T1 sequence (looked up): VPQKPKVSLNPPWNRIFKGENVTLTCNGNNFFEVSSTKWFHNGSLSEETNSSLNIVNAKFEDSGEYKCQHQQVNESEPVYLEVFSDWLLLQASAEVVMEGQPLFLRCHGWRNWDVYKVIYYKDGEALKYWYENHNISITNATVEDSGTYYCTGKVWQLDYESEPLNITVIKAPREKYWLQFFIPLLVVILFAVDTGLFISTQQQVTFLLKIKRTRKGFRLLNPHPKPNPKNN
Description: inhibition of 125I-IgE binding to CHO cells expressing human FcεRI alpha. How it is done: To determine the ability of peptides to inhibit IgE binding to FcεRI, a cell-based binding assay was used with radiolabeled IgE. Chinese hamster ovary cells expressing the alpha subunit of the human FcεRI receptor were cultured overnight in Falcon 96 well microtiter plates at a concentration of 5 ×10^4 cells per well. The following day the cells were rinsed three times with PBS and then once with F12/DMEM. Peptide stocks were reconstituted in 100 mM Hepes buffered water, pH 7.2, at a concentration of 5 mg/mL. Working concentrations of the peptide were diluted in assay buffer (see below). 75 uL of a desired concentration of peptide was added to the top row of a separate 96 well microtiter plate and serially diluted 1:3 in 50 uL of the assay buffer (F12/DMEM, 1% BSA, 0.05% NaN_3 and 0.025 mM Hepes pH 7.2). Starting concentrations ranged from 50–500 uM. Next, 50 uL of the diluted peptide was transferred to the 96 microtiter well plate containing a monolayer of CHO FcεRI+ cells. […] Cells were
Alanine substitutions in IGE063 (SEQ ID NO:49) were used to assess sidechain contributions. The P9A (IGE070, SEQ ID NO:52) substitution had the largest impact with a >500× reduction in binding. […] Clearly the alanine substitutions at G8, P9, W10, G11 and W12 all had major impacts on binding FcεRI.

The target of assay [2] is T2, extracellular domain of the alpha subunit of the human FcεRI (aa 1-176), produced in baculovirus infected … (human, UniProt P12319 26-201, N-linked carbohydrate (NAG on Asn21 seen in the crystal); derivatised with PDEA for thiol coupling to the chip in the biosensor assay).
T2 construct: range 1-176; Residues 1-176 are probably counted without the signal peptide; also called FcεRIα; soluble FcεRI
T2 sequence (looked up): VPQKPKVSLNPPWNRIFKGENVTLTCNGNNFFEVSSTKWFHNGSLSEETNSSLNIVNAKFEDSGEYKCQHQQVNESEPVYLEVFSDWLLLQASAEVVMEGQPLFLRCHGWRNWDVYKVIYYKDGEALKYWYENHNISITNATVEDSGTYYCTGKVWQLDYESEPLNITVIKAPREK
Description: SPR biosensor (BIAcore), peptide over immobilized FcεRIα, steady-state saturation curve, 4-parameter fit. Here is the method: *peptide is a dimer. SEQ ID NO: describes each monomer of the dimer. "ava" = amino-valeric acid Several peptides were also tested in a direct-binding assay using a surface plasmon resonance biosensor (Lofas & Johnsson, *J. Chem. Soc. Commun.* 21, 1526–1528 (1990)). FcεRIα, produced in baculovirus infected insect cells, was immobilized by the surface thiol method (BIAcore Methods Manual Supplement 5a, BIAcore, Inc., Piscataway, N.J.). Briefly, receptor was reacted with 2-(2-pyridinyldithio)ethaneamine hydrochloride (PDEA; Natake & Swaisgood, *J. Biochem.* 74, 77–86 (1973)), desalted into 10 mM sodium acetate (pH 4.8) and stored in aliquots at −80° C. Thawed PDEA-receptor was injected over carboxymethyl-dextran (B1 or CM5, BIAcore, Inc.) biosensor chips preactivated with N-ethyl-N'-(3-dimethylaminopropyl)-carbodiimide hydrochloride (EDC) and N-hydroxysuccinimide (NHS), cystamine, and DTT. Following coupling, reactive groups on the chip were quenched with PDEA and ethanolamine. Serial dilutions of peptide in running buffer (phosphate-buffered saline containing 0.05% Tween-20, 0.01% sodium azide) were injected over the immobilized receptor, and the net amount of peptide bound at steady-state was measured as the net change in response (RU) at a point just prior to termination of peptide injection, compared to a running-buffer baseline. Binding affinities (Table 10) are reported as the midpoint ($EC50$) of a 4-parameter fit to the peptide saturation curve. In the case of IGE134 (SEQ ID NOS:), the value shown indicates the Kd calculated from the rate constants, $kon$ and $koff$. The results of binding assays (Table 8) correlate well with those of inhibition assays (Table 7).
Background: Surface plasmon resonance follows binding to a sensor surface in real time, without labels.

On to Ac-NLPRCTEGPWGWVC (disulfide 5-14 (inferred)) [IGE082], for which, in assay [1], the “fold reduction in binding (against IGE063)” value (shortened to “fold reduction in binding”) is over 400 fold.

B1: IGE123 (peptide)
peptide: VKCPSLCYVGGKALCPDVCYV-NH2
modifications: disulfide (positions not given here); also: oxidized, disulfide-bonded Cys, pairing not given here
As a reminder, the EC50 is the concentration at which the effect is half-maximal. A lower EC50 goes with greater potency. Molecule B1 registered an EC50 in assay [2] of 180 nM.

B2: IGE124 (peptide)
peptide: VPCPELCYVGGKALCPDVCYV-NH2
modifications: disulfide (positions not given here); also: oxidized, disulfide-bonded Cys, pairing not given here
In turn, B2 gave an EC50 in assay [2] of 890 nM.

B3: IGE122 (peptide)
peptide: VQCPHFCYVGGKALCPDVCYV-NH2
modifications: disulfide (positions not given here); also: oxidized, disulfide-bonded Cys, pairing not given here
In the case of B3, it took 150 nM to reach a half-maximal effect in assay [2] (EC50).

In the case of PRCTEGPWGWVCM-NH2 (disulfide 3-12 (inferred)) [IGE069], the “fold reduction in inhibition (against IGE063)” value in assay [1] amounted to 34 fold.

B4: IGE128 (peptide)
peptide: KSCPLWCYVGGKALCPDVCYV-NH2
modifications: disulfide (positions not given here); not fully specified (bridges); also: oxidized, disulfide-bonded Cys, pairing not given here
For B4, in assay [2], the response was half-maximal at 240 nM (EC50).

B5: IGE126 (peptide)
peptide: VTCPRWCYVGGKALCPDVCYV-NH2
modifications: disulfide (positions not given here); also: oxidized, disulfide-bonded Cys, pairing not given here
B5 displayed a concentration giving a half-maximal response (EC50) in assay [2] of 380 nM. This EC50 is about 1.6-fold higher than that of the molecule before. Usually IC50 stands for the concentration that gives 50% inhibition. The low end stands for greater potency, the high end for weaker potency. Molecule Ac-NLPRCTEGPWGWVCM (disulfide 5-14 (inferred)) [IGE063] came in with an IC50 in assay [1] of about 1000 nM. As for NLPRCTEGAWGWVCM (disulfide 5-14 (inferred), also called P9A) [IGE070], the “fold reduction in binding” value in assay [1] is over 500 fold. As for NLPRCTEGPWAWVCM (disulfide 5-14 (inferred)) [IGE074], the “fold reduction in binding” value in assay [1] came to 30 fold. Same read-out and setting: for NLPRCTEGPWGAVCM (disulfide 5-14 (inferred), also called W12A) [IGE073] the value was 65 fold; for NLPRCTEAPWGWVCM (disulfide 5-14 (inferred), also called G8A) [IGE079], 256 fold. ALCPAVCYV-NH2 (also: antiparallel disulfide-linked homodimer, interchain C3-C7' and C7-C3', also called IGE037 dimer) [IGE089] gave an EC50 in assay [2] of 64000 nM. This counts as double-digit micromolar. For the molecule EIQECTEGPWGWFCVGSG (disulfide 5-14 (inferred), also called peptide of clone g8b.11) [synthetic peptide EIQECTEGPWGWFCVGSG (SEQ ID NO:8)], in assay [1], the IC50 came out at 37000 nM and the “fold improvement in activity over the … (SEQ ID NO:1) peptide” value is over 4 fold.

B6: IGE120 (peptide)
peptide: IVCPRLCYVGGKALCPDVCYV-NH2
modifications: disulfide (positions not given here); also: oxidized, disulfide-bonded Cys, pairing not given here
As for B6, the EC50 in assay [2] is 260 nM.

B7: IGE127 (peptide)
peptide: IVCARLCYVGGKALCPDVCYV-NH2
modifications: disulfide (positions not given here); not fully specified (bridges); also: oxidized, disulfide-bonded Cys, pairing not given here
notes: P4A variant of IGE120
In turn, B7 came in with an EC50 in assay [2] of 13000 nM. Compared with the last molecule, the EC50 is about 50-fold higher.

B8: IGE121 (peptide)
peptide: VVCPNMCYVGGKALCPDVCYV-NH2
modifications: disulfide (positions not given here); also: oxidized, disulfide-bonded Cys, pairing not given here
Molecule B8 showed a half-maximal effective concentration (EC50) in assay [2] of 340 nM.

B9: IGE119 (peptide)
peptide: NGCPGWCYVGGKALCPDVCYV-NH2
modifications: disulfide 7-15, 3-19; N-terminus assumed
SMILES: CC(C)C[C@@H]1NC(=O)[C@H](C)NC(=O)[C@H](CCCCN)NC(=O)CNC(=O)CNC(=O)[C@H](C(C)C)NC(=O)[C@H](Cc2ccc(O)cc2)NC(=O)[C@@H]2CSSC[C@H](NC1=O)C(=O)N1CCC[C@H]1C(=O)N[C@@H](CC(=O)O)C(=O)N[C@@H](C(C)C)C(=O)N[C@H](C(=O)N[C@@H](Cc1ccc(O)cc1)C(=O)N[C@H](C(N)=O)C(C)C)CSSC[C@H](NC(=O)CNC(=O)[C@@H](N)CC(N)=O)C(=O)N1CCC[C@H]1C(=O)NCC(=O)N[C@@H](Cc1c[nH]c3ccccc13)C(=O)N2
B9 displayed an EC50 in assay [2] of 1400 nM.

B10: IGE083 (peptide)
peptide: ALCPAVCYVGGKALCPDVCYV-NH2
modifications: disulfide 7-15, 3-19; N-terminus assumed
SMILES: CC(C)C[C@H](NC(=O)[C@H](C)N)C(=O)N[C@H]1CSSC[C@@H](C(=O)N[C@@H](Cc2ccc(O)cc2)C(=O)N[C@H](C(N)=O)C(C)C)NC(=O)[C@H](C(C)C)NC(=O)[C@H](CC(=O)O)NC(=O)[C@@H]2CCCN2C(=O)[C@@H]2CSSC[C@H](NC(=O)[C@H](C(C)C)NC(=O)[C@H](C)NC(=O)[C@@H]3CCCN3C1=O)C(=O)N[C@@H](Cc1ccc(O)cc1)C(=O)N[C@@H](C(C)C)C(=O)NCC(=O)NCC(=O)N[C@@H](CCCCN)C(=O)N[C@@H](C)C(=O)N[C@@H](CC(C)C)C(=O)N2
notes: single chain dimer form of IGE089 with Ala17Asp
With B10, the EC50 in assay [2] is 1100 nM. As to Ac-NLPRCTAGPWGWVCMAAD-NH2 (disulfide 5-14 (inferred), also called E7A) [IGE059], in assay [1], the “fold reduction in binding” value is 6 fold. For LPRCTEGPWGWVCM-NH2 (disulfide 4-13 (inferred)) [IGE068], the “fold reduction in inhibition (against IGE063)” value in assay [1] amounted to 3 fold.

Source of the values: patent publication US7101851 (dated 2006).
